Laboratory results: the supplement of paper PMC10567573

B1: TOR1AIP2 (parent)
chain: HHVADAYTSSQKVSPIQIDGAGRT

Variants of: B1
Experiment: protein stability index of a GFP-peptide fusion (GPS, HEK-293T) (PSI 1-6); higher = more stable
Details: c terminus: a fixed tail appended
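Further: lentivirally expressed fusions sorted by FACS into six bins by GFP to DsRed ratio, PSI derived from sequencing read proportions per bin multiplied by bin number.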

Going from HHVADAYTSSQKVSRIQIDGAGRT [P15R] to HHVADAYTSSQKVSMIQIDGAGRT [P15M], the protein stability index falls from 3.26 to 3.25.

Compared with HHVADAYTSSQKVSTIQIDGAGRT [P15T], HHVADAYTSSQKVSEIQIDGAGRT [P15E] is higher in protein stability index: 3.28 for the first, 3.82 for the second.

First: HHVADAYTSSQKVSGIQIDGAGRT [P15G]
Second: HHVADAYTSSQKVSLIQIDGAGRT [P15L]
The protein stability index of the first is higher: 4.04 for the first, 3.45 for the second.

First: HHVADAYTSSQKVSAIQIDGAGRT [P15A]
Second: HHVADAYTSSQKVSSIQIDGAGRT [P15S]
The protein stability index of the first is higher: 3.66 for the first, 3.41 for the second.

Compared with HHVADAYTSSQKVSYIQIDGAGRT [P15Y], HHVADAYTSSQKVSQIQIDGAGRT [P15Q] is higher in protein stability index: 2.55 for the first, 3.43 for the second.

Compared with HHVADAYTSSQKVSHIQIDGAGRT [P15H], HHVADAYTSSQKVSFIQIDGAGRT [P15F] is lower in protein stability index: 3.08 for the first, 2.82 for the second.

Going from HHVADAYTSSQKVSWIQIDGAGRT [P15W] to HHVADAYTSSQKVSKIQIDGAGRT [P15K], the protein stability index rises from 2.63 to 3.33.

Going from HHVADAYTSSQDVSPIQIDGAGRT [K12D] to HHVADAYTSSQNVSPIQIDGAGRT [K12N], the protein stability index falls from 3.88 to 3.67.

Compared with HHVADAYTSSQIVSPIQIDGAGRT [K12I], HHVADAYTSSQTVSPIQIDGAGRT [K12T] is higher in protein stability index: 3.13 for the first, 3.59 for the second.

First: HHVADAYTSSQMVSPIQIDGAGRT [K12M]
Second: HHVADAYTSSQVVSPIQIDGAGRT [K12V]
The protein stability index of the first is lower: 3.4 for the first, 3.47 for the second.

First: HHVADAYTSSQGVSPIQIDGAGRT [K12G]
Second: HHVADAYTSSQEVSPIQIDGAGRT [K12E]
The protein stability index of the first is lower: 3.48 for the first, 3.84 for the second.

First: HHVADAYTSSQHVSPIQIDGAGRT [K12H]
Second: HHVADAYTSSQWVSPIQIDGAGRT [K12W]
The protein stability index of the first is higher: 3.54 for the first, 2.72 for the second.

Compared with HHVADAYTSSQFVSPIQIDGAGRT [K12F], HHVADAYTSSQPVSPIQIDGAGRT [K12P] is higher in protein stability index: 2.47 for the first, 4.16 for the second.

Going from HHVADAYTSSQAVSPIQIDGAGRT [K12A] to HHVADAYTSSQSVSPIQIDGAGRT [K12S], the protein stability index falls from 3.85 to 3.77.

First: HHVADAYTSSQRVSPIQIDGAGRT [K12R]
Second: HHVADAYTSSQCVSPIQIDGAGRT [K12C]
The protein stability index of the first is higher: 3.34 for the first, 3.06 for the second.

Compared with HHVADAYTSSQQVSPIQIDGAGRT [K12Q], HHVADAYTSSQYVSPIQIDGAGRT [K12Y] is lower in protein stability index: 3.86 for the first, 3.02 for the second.

Compared with HHVADAYTSSQLVSPIQIDGAGRT [K12L], HHVADAYTSSQKVEPIQIDGAGRT [S14E] is higher in protein stability index: 3.24 for the first, 4.13 for the second.

Compared with HHVADAYTSSQKVTPIQIDGAGRT [S14T], HHVADAYTSSQKVDPIQIDGAGRT [S14D] is higher in protein stability index: 3.22 for the first, 4.07 for the second.

Going from HHVADAYTSSQKVMPIQIDGAGRT [S14M] to HHVADAYTSSQKVGPIQIDGAGRT [S14G], the protein stability index rises from 3.25 to 3.27.

Compared with HHVADAYTSSQKVIPIQIDGAGRT [S14I], HHVADAYTSSQKVAPIQIDGAGRT [S14A] is higher in protein stability index: 2.94 for the first, 3.9 for the second.

First: HHVADAYTSSQKVWPIQIDGAGRT [S14W]
Second: HHVADAYTSSQKVYPIQIDGAGRT [S14Y]
The protein stability index of the first is higher: 2.77 for the first, 2.71 for the second.

Going from HHVADAYTSSQKVQPIQIDGAGRT [S14Q] to HHVADAYTSSQKVFPIQIDGAGRT [S14F], the protein stability index falls from 3.35 to 3.34.

First: HHVADAYTSSQKVRPIQIDGAGRT [S14R]
Second: HHVADAYTSSQKVHPIQIDGAGRT [S14H]
The protein stability index of the first is lower: 3.26 for the first, 3.44 for the second.

Going from HHVADAYTSSQKVLPIQIDGAGRT [S14L] to HHVADAYTSSQKVCPIQIDGAGRT [S14C], the protein stability index falls from 3.42 to 3.22.

First: HHVADAYTSSQKVPPIQIDGAGRT [S14P]
Second: HHVADAYTSSQKVNPIQIDGAGRT [S14N]
The protein stability index of the first is lower: 3.25 for the first, 4.01 for the second.

First: HHVADAYTSSQKVVPIQIDGAGRT [S14V]
Second: HHVADAYTSSQKVKPIQIDGAGRT [S14K]
The protein stability index of the first is higher: 3.46 for the first, 3.45 for the second.

Compared with HHVADAYTSSQKVSPIQIDAAGRT [G20A], HHVADAYTSSQKVSPIQIDCAGRT [G20C] is lower in protein stability index: 3.53 for the first, 3.19 for the second.

First: HHVADAYTSSQKVSPIQIDEAGRT [G20E]
Second: HHVADAYTSSQKVSPIQIDDAGRT [G20D]
The protein stability index of the first is lower: 3.36 for the first, 4.01 for the second.

Compared with HHVADAYTSSDKVSPIQIDGAGRT [Q11D], HHVADAYTSSTKVSPIQIDGAGRT [Q11T] is lower in protein stability index: 4.26 for the first, 3.6 for the second.

Going from HHVADAYTSSFKVSPIQIDGAGRT [Q11F] to HHVADAYTSSAKVSPIQIDGAGRT [Q11A], the protein stability index rises from 2.65 to 3.23.

Compared with HHVADAYTSSSKVSPIQIDGAGRT [Q11S], HHVADAYTSSEKVSPIQIDGAGRT [Q11E] is higher in protein stability index: 3.44 for the first, 3.97 for the second.

First: HHVADAYTSSPKVSPIQIDGAGRT [Q11P]
Second: HHVADAYTSSMKVSPIQIDGAGRT [Q11M]
The protein stability index of the first is higher: 3.74 for the first, 3.15 for the second.

Going from HHVADAYTSSLKVSPIQIDGAGRT [Q11L] to HHVADAYTSSNKVSPIQIDGAGRT [Q11N], the protein stability index rises from 3.27 to 3.29.

Compared with HHVADAYTSSGKVSPIQIDGAGRT [Q11G], HHVADAYTSSCKVSPIQIDGAGRT [Q11C] is lower in protein stability index: 3.66 for the first, 3.06 for the second.

Compared with HHVADAYTSSHKVSPIQIDGAGRT [Q11H], HHVADAYTSSWKVSPIQIDGAGRT [Q11W] is lower in protein stability index: 3 for the first, 2.21 for the second.

Going from HHVADAYTSSYKVSPIQIDGAGRT [Q11Y] to HHVADAYTSSKKVSPIQIDGAGRT [Q11K], the protein stability index rises from 2.96 to 3.56.

First: HHVADAYTSSIKVSPIQIDGAGRT [Q11I]
Second: HHVADAYTSSVKVSPIQIDGAGRT [Q11V]
The protein stability index of the first is higher: 3 for the first, 2.89 for the second.

Compared with HHVADAYTSSRKVSPIQIDGAGRT [Q11R], HHVADAYTSSQKVSPIQCDGAGRT [I18C] is higher in protein stability index: 2.95 for the first, 3.61 for the second.

First: HHVADAYTSSQKVSPIQWDGAGRT [I18W]
Second: HHVADAYTSSQKVSPIQKDGAGRT [I18K]
The protein stability index of the first is lower: 3.26 for the first, 3.98 for the second.

Going from HHVADAYTSSQKVSPIQSDGAGRT [I18S] to HHVADAYTSSQKVSPIQADGAGRT [I18A], the protein stability index rises from 3.72 to 4.03.

Going from HHVADAYTSSQKVSPIQTDGAGRT [I18T] to HHVADAYTSSQKVSPIQYDGAGRT [I18Y], the protein stability index falls from 3.87 to 2.97.

Compared with HHVADAYTSSQKVSPIQQDGAGRT [I18Q], HHVADAYTSSQKVSPIQDDGAGRT [I18D] is higher in protein stability index: 3.75 for the first, 4.28 for the second.

First: HHVADAYTSSQKVSPIQPDGAGRT [I18P]
Second: HHVADAYTSSQKVSPIQVDGAGRT [I18V]
The protein stability index of the first is higher: 4.15 for the first, 3.76 for the second.

First: HHVADAYTSSQKVSPIQLDGAGRT [I18L]
Second: HHVADAYTSSQKVSPIQNDGAGRT [I18N]
The protein stability index of the first is lower: 3.57 for the first, 3.96 for the second.

Going from HHVADAYTSSQKVSPIQFDGAGRT [I18F] to HHVADAYTSSQKVSPIQRDGAGRT [I18R], the protein stability index rises from 2.9 to 3.58.

Going from HHVADAYTSSQKVSPIQGDGAGRT [I18G] to HHVADAYTSSQKVSPIQMDGAGRT [I18M], the protein stability index rises from 3.47 to 3.84.

Going from HHVADAYTSSQKVSPIQEDGAGRT [I18E] to HHVADAYTSSQKVSPIQHDGAGRT [I18H], the protein stability index rises from 3.73 to 3.85.
